Measurements published in PMC11291072 (bioRxiv, 2024).

Target: T1, ERK2-phosphorylated human PPARγ2 AF-1 domain (pS112 + pT75), residues 1-136 (human, UniProt P37231-1 1-136)
T1 sequence: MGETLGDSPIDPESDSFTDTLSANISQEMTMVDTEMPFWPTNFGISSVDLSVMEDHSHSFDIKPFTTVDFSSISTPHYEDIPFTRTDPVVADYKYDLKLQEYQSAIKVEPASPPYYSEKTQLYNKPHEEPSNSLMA
Assay: NMR titration

B1: Pin1 PPIase domain (residues 42-163) (domain or fragment)
chain: SSGGKNGQGEPARVRCSHLLVKHSQSRRPSSWRQEKITRTKEEALELINGYIQKIKSGEEDFESLASQFSDCSSAKARGDLGAFSRGQMQKPFEDASFALRTGEMSGPVFTDSGIHIILRTE
binding result: binds
